Measurements reported in patent publication US20250326818A1 (UNIVERSIT T BASEL, published 2025).
Positions count from the first letter of the chain named.

Columns and labels:
Assay in all cases: BLI (Octet), biotinylated CD123 ECD captured on streptavidin tips, hIL3 as analyte, level at 250 s normalised to loading
CD123 ECD R84E = target: T1, CD123 ECD R84E (human, UniProt P26951 19-305)
T1 construct: Recombinant ECD
T1 sequence: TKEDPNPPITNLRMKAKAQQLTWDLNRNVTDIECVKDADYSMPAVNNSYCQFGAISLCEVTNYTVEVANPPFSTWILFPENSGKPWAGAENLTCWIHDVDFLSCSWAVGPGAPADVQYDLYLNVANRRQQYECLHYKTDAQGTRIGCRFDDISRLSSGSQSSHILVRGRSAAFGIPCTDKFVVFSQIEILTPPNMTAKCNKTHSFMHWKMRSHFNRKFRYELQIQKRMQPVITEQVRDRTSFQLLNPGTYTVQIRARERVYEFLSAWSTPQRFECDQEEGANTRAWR
Experimental: (§1) Binding of hIL3 (SinoBiological, PN: 11858-H08H) (analyte) to CD123 ECD wt. and variants (ligands) was performed using Streptavidin capture biosensor (SA) (Sartorius, PN: 18-5019). CD123 ECD wt. and variants were biotinylated using Biotinylation kit Type B (Abeam, PN: ab201796) following manufacturer instructions. Biotinylated CD123 ECD wt. and variants (ligands) were captured on SA tips for 1000 s to achieve a nm shift of 1.5 to 2 nm. Analyte hIL3 was titrated at 7 concentrations from 500 to 7.8 nM. Association to analyte was monitored for 300 s and dissociation for 120 s. Buffer only well was used as reference. No regeneration was performed, and a new set of tips was used for each biotinylated captured ligand. Data were analyzed using the Octet Data Analysis software HT 12.0. Due to the fast on/off nature of the interaction data were analyzed using Steady state analysis. Qualitative representation in FIG. 11 binding level were taken at 250 s association for all concentrations.

CD123 ECD S59R = target: T2, CD123 ECD S59R (human, UniProt P26951 19-305)
T2 construct: Recombinant ECD
T2 sequence: T1 sequence with S41R, E66R
Experimental: as §1

CD123 ECD R84T = target: T3, CD123 ECD R84T (human, UniProt P26951 19-305)
T3 construct: Recombinant ECD
T3 sequence: T1 sequence with E66T
Experimental: as §1

CD123 ECD E51A = target: T4, CD123 ECD E51A (human, UniProt P26951 19-305)
T4 construct: Recombinant ECD
T4 sequence: T1 sequence with E33A, E66R
Experimental: as §1

CD123 ECD wt = target: T5, CD123 ECD wt (human, UniProt P26951 19-305)
T5 construct: Recombinant extracellular domain; Biotinylated when captured for the hIL3 assay; also called CD123_WT; recombinant wildtype CD123
T5 sequence: T1 sequence with E66R
Experimental: as §1

CD123 ECD R84Q = target: T6, CD123 ECD R84Q (human, UniProt P26951 19-305)
T6 construct: Recombinant ECD
T6 sequence: T1 sequence with E66Q
Experimental: as §1

Measured: binding result

B1: hIL3 (ligand, human, UniProt P08700 20-152, looked up)
chain: APMTQTTPLKTSWVNCSNMIDEIITHLKQPPLPLLDFNNLNGEDQDILMENNLRRPNLEAFNRAVKSLQNASAIESILKNLLPCLPLATAAPTRHPIHIKDGDWNEFRRKLTFYLKTLENAQAQQTTLSLAIF
notes: also called Interleukin-3
binds: all assays above
